# Experimental data reported in paper PMC2921665.
# Changes are numbered by the printed parent chain.
# B1: RecA SOS box (dsDNA)
# DNA 1: GATGCCTGCGGATACTGTATGATCATACAGTATCAATTCTGGCT
# DNA 2: AGCCAGAATTGATACTGTATGATCATACAGTATCCGCAGGCATC
# B2: AT-GC spacer (dsDNA)
# DNA 1: B1 DNA 1 with A22C, T23G
# DNA 2: B1 DNA 2 with A22C, T23G
# B3: AT-repeat spacer (dsDNA)
# DNA 1: B1 DNA 1 with G21A, A22T, T23A, C24T
# DNA 2: B1 DNA 2 with G21A, A22T, T23A, C24T
# B4: TGC spacer (dsDNA)
# DNA 1: B1 DNA 1 with T20C, A22C, T23G, A25G
# DNA 2: B1 DNA 2 with T20C, A22C, T23G, A25G
# B5: A-tract spacer (dsDNA)
# DNA 1: B1 DNA 1 with T20A, G21A, T23A, C24A, T26A
# DNA 2: B1 DNA 2 with A19T, G21T, A22T, C24T, A25T
# B6: GC-repeat spacer (dsDNA)
# DNA 1: GATGCCTGCGGATACTGTGCGCGCGCACAGTATCAATTCTGGCT
# DNA 2: AGCCAGAATTGATACTGTGCGCGCGCACAGTATCCGCAGGCATC
# B7: +1 spacer (dsDNA)
# DNA 1: GATGCCTGCGGATACTGTATATATAATACAGTATCAATTCTGGCT
# DNA 2: AGCCAGAATTGATACTGTATTATATATACAGTATCCGCAGGCATC
# B8: -1 spacer (dsDNA)
# DNA 1: GATGCCTGCGGATACTGTATATATTACAGTATCAATTCTGGCT
# DNA 2: AGCCAGAATTGATACTGTAATATATACAGTATCCGCAGGCATC
# Molecular target: T1, LexA (EMSA protein) (Escherichia coli, UniProt P0A7C2 1-202, K156A)
# Test: EMSA
row,Binder,Kd [nM]
1,B1,1.67 ± 0.26
2,B2,1.59 ± 0.3
3,B3,0.8 ± 0.27
4,B4,2.4 ± 0.5
5,B5,5.64 ± 0.78

# Molecular target: T1, LexA (EMSA protein)
# Test: EMSA
# Remark: another data set of the same source
row,Binder,Kd [nM]
1,B6,~100
2,B7,~200
3,B8,~250
